Source: PMC3435532

Tested on: FLI1-CTD K4bR
Experiment: EMSA
Details: non-acetylated baseline; normalized to Coomassie; Non-radioactive EMSA: 1 ug protein, 500 fmol biotinylated dsDNA, binding buffer per Uren et al. 2004 (not given); 6% gel in 0.5x TBE; protein stock 20 mM …

For “ets-binding site oligonucleotide (wild type)”, the binding signal (fold vs non-acetylated wild type) was 1.
